For test [1], the target named is relaxin family peptide receptor-1 (human) (UniProt Q9HBX9).
For test [2] the target is unchanged. The source holds these as a separate data set.
The target is the same in test [3]. This is another data set of the same source.

Consider one substance from paper PMC5589886.

Sequence of UniProt Q9HBX9 (Q9HBX9 whole entry): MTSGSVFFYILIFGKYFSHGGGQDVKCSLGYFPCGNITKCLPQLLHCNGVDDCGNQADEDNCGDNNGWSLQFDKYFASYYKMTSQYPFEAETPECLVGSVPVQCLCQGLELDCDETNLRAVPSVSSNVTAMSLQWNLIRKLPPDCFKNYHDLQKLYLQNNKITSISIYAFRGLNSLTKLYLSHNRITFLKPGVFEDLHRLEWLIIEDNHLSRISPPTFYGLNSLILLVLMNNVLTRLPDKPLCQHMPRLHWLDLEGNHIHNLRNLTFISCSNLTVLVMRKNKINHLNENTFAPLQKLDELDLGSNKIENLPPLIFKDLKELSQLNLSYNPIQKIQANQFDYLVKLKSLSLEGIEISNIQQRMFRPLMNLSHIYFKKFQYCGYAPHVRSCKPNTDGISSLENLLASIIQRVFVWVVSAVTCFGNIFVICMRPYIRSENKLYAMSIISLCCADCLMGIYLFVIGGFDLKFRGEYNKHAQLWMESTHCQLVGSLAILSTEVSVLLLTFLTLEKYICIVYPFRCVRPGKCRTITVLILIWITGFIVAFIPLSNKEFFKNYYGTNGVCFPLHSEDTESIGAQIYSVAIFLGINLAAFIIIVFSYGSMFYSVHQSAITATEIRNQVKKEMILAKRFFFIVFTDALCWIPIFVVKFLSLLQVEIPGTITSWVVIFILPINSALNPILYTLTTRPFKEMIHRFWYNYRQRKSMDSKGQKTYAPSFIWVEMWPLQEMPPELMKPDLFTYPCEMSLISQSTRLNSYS

In test [1], human relaxin-2 (ligand) had a cAMP response, representative H2-RLX dose response in LX-2 cells (endogenous RXFP1), pEC50 of 8.8 pEC50 and a cAMP response, representative H2-RLX dose response in hHSCs (endogenous RXFP1), pEC50 of 9.3 pEC50. In test [2], this substance showed a cAMP response of LX-2 cells (endogenous RXFP1) to 60 min H2-RLX after 40 h culture on plastic, mean pEC50 (n = 7) of 9.1 pEC50 and a cAMP response of primary hHSCs (endogenous RXFP1) to 60 min H2-RLX after 40 h culture, mean pEC50 across three patient samples of 9 pEC50. The same substance had a cAMP generation (TR-FRET Lance cAMP immunoassay), mean pEC50 of H2-RLX in HEK293 cells transduced with RXFP1 BacMam at 0.5%, 5% and 10% v/v (pEC50 9.7, 10.2 and 11.3) in test [3] of 11.3 pEC50.
